In experiment [1] the target is gp160 clone 108051_005 Q655R (HIV-1).
Experiment [2] deals with gp160 clone 108069_005 Q655R (HIV-1).

Results on six substances are retold here after patent publication US20180099041A1.

On to “broadly neutralizing, CD4 blocking monoclonal antibody b12”, for which the IC50 (neutralization of pseudovirus infection) (with 108060_022 Q655R (HIV-1); with 108060_024 R655Q (HIV-1); in experiment [1]; in experiment [2]) was greater than 20 µg/mL throughout.
Consider “broadly neutralizing monoclonal antibody 2F5”, for which the IC50 (neutralization of pseudovirus infection) in the experiment with 108060_022 Q655R (HIV-1) came to 0.093 µg/mL; in the experiment with 108060_024 R655Q (HIV-1), 3.43 µg/mL; in experiment [1] it was 0.343 µg/mL; in experiment [2] it was 0.052 µg/mL.
In the case of “CD4-IgG (from UniProt P01730) (Fc fusion)”, the IC50 (neutralization of pseudovirus infection) in the experiment with 108060_022 Q655R (HIV-1) was 0.161 µg/mL; in the experiment with 108060_024 R655Q (HIV-1) it was greater than 20 µg/mL; in experiment [1] it was 5.21 µg/mL; in experiment [2] it was 1.08 µg/mL.
For enfuvirtide (peptide), the IC50 (neutralization of pseudovirus infection) with 108060_022 Q655R (HIV-1) is 0.004 µg/mL; in the experiment with 108060_024 R655Q (HIV-1), 0.13 µg/mL; in experiment [1], 0.036 µg/mL; in experiment [2] it was 0.011 µg/mL.
Consider monoclonal antibody 2G12, for which the IC50 (neutralization of pseudovirus infection) (with 108060_022 Q655R (HIV-1); with 108060_024 R655Q (HIV-1); in experiment [1]; in experiment [2]) was greater than 20 µg/mL each time.
With “broadly neutralizing monoclonal antibody 4E10”, the IC50 (neutralization of pseudovirus infection) in the experiment with 108060_022 Q655R (HIV-1) was found to be 0.156 µg/mL; with 108060_024 R655Q (HIV-1) it was 6.55 µg/mL; in experiment [1], 1.31 µg/mL; in experiment [2], 0.044 µg/mL.
